From patent publication US20220380473A1, “ANTI-GAL3 ANTIBODIES AND USES THEREOF” (TrueBinding, Inc., priority 2019, published 2022)

What was measured:
hGal3 peptides = experiment: ELISA of antibody binding to hGal3 peptides (Example 14); set-up: species or system human; conditions: 0.1 ug/ml antibody
Procedure: A library of 20 amino acid peptides each representing a certain regions of hGal3 (SEQ ID NO: 1) was produced. At least 2 ug/ml of the produced hGal3 peptide: peptide 1 (SEQ ID NO: 3), 5 (SEQ ID NO: 7), 6 (SEQ ID NO: 8), 8 (SEQ ID NO: 10), or 23 (SEQ ID NO: 25) in 50 ul of PBS was added to the wells of a 96-well ELISA plate (Thermo Fisher, 44-2404-21). As a positive control, 0.1 ug/ml of full-length human Galectin-3 protein (Acro Biosystems, GA3-H5129) in 100 ul of PBS was added to the wells of the ELISA plate. After incubating the plate at 4° C. overnight, the plate was washed three times with 300 ul of PBST per well. The plate was then blocked for an hour with 200 ul of 2% BSA in PBST per well at room temperature with gentle rocking. Thereafter, the 2% BSA in PBST was removed and 100 ul of 0.1 ug/ml of antibody in 2% BSA in PBST was added to the wells (FIG. 17A-B). As for negative control group, the antibodies were applied without the hGal3 peptides or the hGal3 protein.
The plate was incubated for an hour at room temperature with gentle rocking and then washed three times with 300 μl of PBST per well. […] The reaction was stopped with 50 ul of 1M HCl (VWR) per well and the plate was read using a plate reader (Molecular Devices) at absorbance of 450 nm.

[1] = molecular target: T1, association of GAL3 and TIM3 (Homo sapiens, UniProt P17931); experiment: GAL3-TIM3 blocking ELISA (Examples 24, 27); type: binding; conditions: 3 ug/mL antibody
T1 construct: full-length human Galectin-3 protein (Acro Biosystems, GA3-H5129); linker-spaced 6-histidine tag; purchased Acro Biosystems GA3-H5129 (Gal3); TM3-H5229 (TIM-3)
T1 sequence (P17931 2-250 limits assumed): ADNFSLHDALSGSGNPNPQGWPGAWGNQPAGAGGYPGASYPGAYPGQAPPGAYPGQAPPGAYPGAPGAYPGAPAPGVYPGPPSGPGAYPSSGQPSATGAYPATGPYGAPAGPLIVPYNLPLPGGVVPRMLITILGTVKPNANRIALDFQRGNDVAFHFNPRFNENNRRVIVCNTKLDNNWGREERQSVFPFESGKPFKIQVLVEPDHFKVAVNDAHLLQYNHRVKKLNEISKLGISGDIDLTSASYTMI
Method in brief: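 Plates coated with human Galectin-3 at 3 μg/ml, blocked with 2% BSA, then given hybridoma supernatant, antibody or inhibitor (3-fold dilutions from 20 μg/ml, 60 μg/ml or 180 μM) plus 2 μg/ml human TIM3 added 1:1, 1 h at room temperature. Bound TIM3 detected by biotinylated anti-TIM3, avidin-HRP and TMB at 450 nm.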

[2] = molecular target: T2, interaction of Gal3 and TIM-3 (Homo sapiens, UniProt P17931); experiment: Gal3-TIM-3 interaction blockade ELISA (Example 13); type: binding; conditions: antibody at 20 ug/ml
T2 construct: full-length human Galectin-3 protein (Acro Biosystems, GA3-H5129); linker-spaced 6-histidine tag; purchased Acro Biosystems GA3-H5129 (Gal3); TM3-H5229 (TIM-3)
T2 sequence (P17931 2-250 limits assumed): as above
Procedure: To identify Gal3-targeted antibodies with the ability to block the interaction of Gal3 and TIM-3, purified Gal3 and TIM-3 proteins were incubated in the presence (or absence) of various Gal3-targeted or control antibodies, or without antibody, and protein interaction was evaluated by ELISA.
Human Gal3 protein (Acro Biosystems, GA3-H5129) was diluted in phosphate buffered saline (PBS) (Corning) to a concentration of 0.5 μg/ml and 100 ul of the diluted hGal3 was added to each well of a 96-well ELISA plate (Thermo Fisher, 44-2404-21). After incubating the plate at 4° C. overnight, the plate was washed three times with 300 μl of PBS with 0.05% TWEEN (VWR) (PBST) per well. The plate was then blocked for an hour with 200 μl of 2% bovine serum albumin (BSA) (Sigma) in PBST per well at room temperature with gentle rocking. […]
Afterwards, 50 ul of 1 ug/ml of human TIM-3 extracellular domain protein (Acro Biosystems, TM3-H5229) in 2% BSA in PBST was added to the wells. […] The plate was read using a plate reader (Molecular Devices) at absorbance of 450 nm. Percent blockade of Gal3-TIM-3 interaction was calculated as the fraction of signal obtained in the absence of antibody with the background signal subtracted.

GAL3-TIM3 Blocking @ 3 ug/mL [1]: 80% | Gal3-TIM-3 binding, % of unblocked control (no antibody) [2]: 7%
B1: IMT001: anti-Gal3 monoclonal antibody (Immutics); printed as mIMT001 (IMT001), murine (antibody, V domains shown)
VH: QIQLVQSGPELKKPGETVKISCKASGYTFTNYGMNWVKQAPGKGLKWMGWINTNTGEPTYVEEFKGRFAFSLETSASTAYLQINNLKNEDTATYFCAPYDNFFAYWGQGTLVTVSA
VL: DIVITQDELSNPVTSGESVSISCRSSKSLLYKDGKTYLNWFLQRPGQSPQLLIYLMSTHASGVSDRFSGSGSGTDFTLEISRVKAEDVGVYYCQQLVDYPLTFGAGTKLELK
hGal3 peptides bound (hGal3 peptides): 5 (SEQ ID NO: 7), 6 (SEQ ID NO: 8), and 8 (SEQ ID NO: 10)
